Data taken from patent US20150232576A1.
One block for each substance: values may come before it.

Assays:
[1] = molecular target: Phosphorylated His-p38 (p38 MAP kinase) (UniProt Q16539); experiment: BLI, immobilised p38, 696 nM nNOS analyte, compared with eNOS
[2] = molecular target: Phosphorylated His-p38 (p38 MAP kinase) (UniProt Q16539); experiment: BLI, immobilised p38, k2/k1
[3] = molecular target: Phosphorylated His-p38 (p38 MAP kinase) (UniProt Q16539); experiment: optical biosensing (BLI), summary statement
[4] = molecular target: Phosphorylated His-p38 (p38 MAP kinase) (UniProt Q16539); experiment: refers to the biosensor experiments described above
[5] = molecular target: Phosphorylated His-p38 (p38 MAP kinase) (UniProt Q16539); experiment: BLI, biotinylated p38 on streptavidin sensors, 696 nM eNOS analyte
[6] = molecular target: Phosphorylated His-p38 (p38 MAP kinase) (UniProt Q16539); experiment: BLI, immobilised p38, eNOS analyte, two-component sequential model
[7] = molecular target: Phosphorylated His-p38 (p38 MAP kinase) (UniProt Q16539); experiment: BLI, immobilised p38, from the pseudo first order rate at 232 nM eNOS
[8] = molecular target: Phosphorylated His-p38 (p38 MAP kinase) (UniProt Q16539); experiment: BLI, biotinylated p38 on streptavidin sensors, 696 nM eNOS, 300 s dissociation in buffer

endothelial nitric oxide synthase (eNOS), purified, unphosphorylated, sequence (P29473 whole entry): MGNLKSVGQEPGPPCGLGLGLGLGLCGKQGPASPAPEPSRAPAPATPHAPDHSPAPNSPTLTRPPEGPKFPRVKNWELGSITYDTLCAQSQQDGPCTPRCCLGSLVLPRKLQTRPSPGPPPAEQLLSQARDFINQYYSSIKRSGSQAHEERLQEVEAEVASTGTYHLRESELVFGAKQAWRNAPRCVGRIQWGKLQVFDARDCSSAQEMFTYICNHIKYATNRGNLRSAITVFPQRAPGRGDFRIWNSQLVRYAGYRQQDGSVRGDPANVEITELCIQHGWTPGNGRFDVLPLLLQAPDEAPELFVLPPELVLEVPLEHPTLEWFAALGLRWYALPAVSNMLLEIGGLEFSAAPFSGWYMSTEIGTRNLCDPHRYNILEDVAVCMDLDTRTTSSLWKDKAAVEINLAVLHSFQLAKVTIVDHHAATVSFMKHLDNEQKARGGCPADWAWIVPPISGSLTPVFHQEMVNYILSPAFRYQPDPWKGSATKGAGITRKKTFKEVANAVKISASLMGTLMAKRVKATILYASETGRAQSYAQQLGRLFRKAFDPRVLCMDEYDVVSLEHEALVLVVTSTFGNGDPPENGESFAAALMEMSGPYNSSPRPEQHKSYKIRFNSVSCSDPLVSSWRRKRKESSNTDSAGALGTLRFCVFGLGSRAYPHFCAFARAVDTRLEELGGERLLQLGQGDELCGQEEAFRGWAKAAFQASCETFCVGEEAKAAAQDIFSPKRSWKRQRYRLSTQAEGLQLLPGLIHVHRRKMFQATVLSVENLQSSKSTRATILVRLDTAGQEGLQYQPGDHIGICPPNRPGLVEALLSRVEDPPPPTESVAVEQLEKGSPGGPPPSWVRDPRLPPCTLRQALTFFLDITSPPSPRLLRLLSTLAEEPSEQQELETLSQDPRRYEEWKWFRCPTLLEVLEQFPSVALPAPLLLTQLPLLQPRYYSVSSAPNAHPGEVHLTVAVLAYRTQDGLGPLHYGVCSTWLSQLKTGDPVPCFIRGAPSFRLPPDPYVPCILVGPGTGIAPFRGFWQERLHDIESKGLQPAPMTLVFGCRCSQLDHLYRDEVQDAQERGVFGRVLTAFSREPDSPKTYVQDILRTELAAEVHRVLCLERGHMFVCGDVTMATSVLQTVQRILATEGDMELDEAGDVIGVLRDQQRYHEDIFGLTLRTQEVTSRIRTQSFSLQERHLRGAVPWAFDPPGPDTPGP

fold slower binding than eNOS [1]: 30 fold
Substance: neuronal nitric oxide synthase (nNOS) (from UniProt P29476 1-1429) (enzyme)

Kd [2]: 80 nM
Kd [3]: 100 nM
kon [3]: 150000 M⁻¹ s⁻¹
Kd [4]: 0.05 to 0.1 nM
half time of the initial association component [5]: 10 s
k1 (pseudo first order forward rate, first step) at 26 nM eNOS [6]: 0.0025 s⁻¹
k1 (pseudo first order forward rate, first step) at 77 nM eNOS [6]: 0.0008 s⁻¹
k1 (pseudo first order forward rate, first step) at 232 nM eNOS [6]: 0.03 s⁻¹
k1 (pseudo first order forward rate, first step) at 696 nM eNOS [6]: 0.1 s⁻¹
k2 (reverse rate, first step) at 26 nM eNOS [6]: 0.01 s⁻¹
k2 (reverse rate, first step) at 77 nM eNOS [6]: 0.01 s⁻¹
k2 (reverse rate, first step) at 232 nM eNOS [6]: 0.01 s⁻¹
k2 (reverse rate, first step) at 696 nM eNOS [6]: 0.01 s⁻¹
k3 (forward rate, second step) at 26 nM eNOS [6]: 0.0002 s⁻¹
k3 (forward rate, second step) at 77 nM eNOS [6]: 0.006 s⁻¹
k3 (forward rate, second step) at 232 nM eNOS [6]: 0.0002 s⁻¹
k3 (forward rate, second step) at 696 nM eNOS [6]: 0.006 s⁻¹
k4 (reverse rate, second step) at 26 nM eNOS [6]: 0.001 s⁻¹
k4 (reverse rate, second step) at 77 nM eNOS [6]: 0.001 s⁻¹
k4 (reverse rate, second step) at 232 nM eNOS [6]: 0.001 s⁻¹
k4 (reverse rate, second step) at 696 nM eNOS [6]: 0.001 s⁻¹
kon [7]: 130000 M⁻¹ s⁻¹
percent of the rapid phase binding dissociated in buffer [8]: 25%
Substance: endothelial nitric oxide synthase (eNOS), purified, unphosphorylated (from UniProt P29473 1-1205) (enzyme)
